Laboratory results reported in publication PMC11761708.

Biological target: protein G-Fc (Fc specific protein G variant)
Assay: SPR

Kd: 3.8 nM
Substance: human Fc (Fc domain of IgG) (domain or fragment)
